According to publication PMC12732409:

Molecular target: hyaluronidase from bovine testes (bovine)

hyaluronidase inhibition rate (enzyme activity on hyaluronic acid, absorbance at 600 nm) at 500 μM sample, 1 U/mL hyaluronidase: 91%
Substance: NGT-M002 (pvFP-5; Perna viridis foot protein-5) (natural protein)
